Data taken from paper PMC10239968, “[^18F]AlF-NOTA-ADH-1: A new PET molecular radiotracer for imaging of N-cadherin-positive tumors” (Frontiers in Oncology, 2023).

Key:
[1] = in vivo; design: species or system Kunming mice; settings: mouse; for tissue uptake at 2 min / tissue uptake at 5 min / tissue uptake at 0.25 h / tissue uptake at 0.5 h / tissue uptake at 1 h / tissue uptake at 2 h: Kunming, total radioactivity
Description: Thirty SPF Kunming mice weighing 18-20g were randomly divided into 6 groups (n=5). As described above, [^18F]AlF-NOTA-ADH-1 was purified and separated by HPLC analysis. Each mouse was injected with a dose of 0.74MBq (20μCi) through a caudal vein. Blood was collected from the orbit, the mice were sacrificed, and the brain, heart, lung, liver, spleen, kidney, stomach, intestine, muscle, bone and other organs were taken at 2 min, 5 min, 15 min, 30 min, 60min and 120min after injection. The radioactivity results were recorded as injected radioactivity per gram of tissue (% ID/g) corrected for background and decay.

[2] = system: SW480 tumor xenografts; experiment: Micro-PET imaging, SW480 tumor model; format: in vivo, nude mice; settings: SW480 tumor-bearing nude mouse model, 60 min after injecting, non-blocked
Description: [^18F]AlF-NOTA-ADH-1 was evaluated by micro-PET imaging on nude mice bearing a PDX tumor, SW-480 and BxPC3 tumor xenografts. Each tumor-bearing nude mouse was injected with 3.7MBq [^18F]AlF-NOTA-ADH-1 via the tail vein. After being anesthetized with isoflurane, tumor-bearing nude mice were imaged using a micro-PET/CT scanner at 60 minutes post-injection under continuous isoflurane inhalation using a nasal mask with a connecting tube. Micro-PET/CT scanning was performed after low-dose 3D acquisition CT scanning at 10 minutes per bed. A blocking study was conducted, in which a saturating dose of unlabeled ADH-1 (20 mg/kg of mouse body weight) was intravenously administered 60 min before the intravenous injection of [^18F]AlF-NOTA-ADH-1.
The three-dimensional volume of interest (VOI) was used to assess the standard uptake value (SUV) of selected organs. The Seimens Inveon analysis software configured with micro-PET/CT was used to delineate the region of interest along the edge of the tumor and each normal tissue on the PET image. Subsequently, the SUV of each region of interest was measured, and the tumor/non-tumor ratio (T/NT) between the tumor and normal tissue was measured.

[3] = format: physicochemical
Description: The partition coefficient of [^18F]AlF-NOTA-ADH-1 was measured by assessing the distribution of radioactivity in 1-octanol and phosphate buffer in a 2 mL centrifuge tube. 20µL of [^18F]AlF-NOTA-ADH-1 solution was added to a tube containing 0.5 mL each of 1-octanol and PBS. The mixture was vortexed and centrifuged (5,000 r/min) for 5 min. A total of 2 samples (50 μL) were collected from each layer and were assayed in a γ counter. Partition coefficients (log Po/w) are shown as the log counts in 1-octanol vs. PBS layers (n=3).

[4] = In vitro stability in PBS; format: physicochemical; settings: 3.7 MBq in 0.5 mL PBS, 37 °C (results; method: room temperature), radio-TLC or radio-HPLC
Description: The stability of [^18F]AlF-NOTA-ADH-1 was tested in PBS and bovine serum. In brief, 3.7 MBq of[^18F]AlF-NOTA-ADH-1 was pipetted into 0.5 mL of PBS and incubated in PBS at room temperature or bovine serum at 37°C. For the study, an aliquot of the solution was directly taken at 1, 6, and 8 h after incubation, and the radiochemical purity was determined by radio-TLC or radio-HPLC under identical conditions.

[5] = iv, 0.74 MBq (20 uCi) per mouse, Blood radioactive concentration
[6] = iv, 0.74 MBq (20 uCi) per mouse, Bone uptake
[7] = iv, 0.74 MBq (20 uCi) per mouse, Brain uptake
[8] = iv, 0.74 MBq (20 uCi) per mouse, Intestines uptake
[9] = iv, 0.74 MBq (20 uCi) per mouse, Muscle uptake
[10] = iv, 0.74 MBq (20 uCi) per mouse, Skin uptake

`CC(=O)N[C@H]1CSSC[C@@H](C(=O)NCCNC(=O)CN2CCN(CC(=O)O)CCN(CC(=O)O)CC2)NC(=O)[C@H](C(C)C)NC(=O)[C@H](C)NC(=O)[C@H](Cc2c[nH]cn2)NC1=O` [[^18F]AlF-NOTA-ADH-1] gave a tissue uptake at 2 min [1, 5] of 18.8 ± 1.95 %ID/g, a tissue uptake at 5 min [1, 5] of 8.77 ± 1.37 %ID/g and a tissue uptake at 0.25 h [1, 5] of 3.79 ± 1.19 %ID/g. It also gave a tissue uptake at 0.5 h [1, 5] of 2.28 ± 0.81 %ID/g, a tissue uptake at 1 h [1, 5] of 2.15 ± 0.18 %ID/g and a tissue uptake at 2 h [1, 5] of 1.04 ± 0.36 %ID/g. For the same compound, the tissue uptake at 2 min [1, 6] was 5.3 ± 0.94 %ID/g, the tissue uptake at 5 min [1, 6] was 6.71 ± 0.62 %ID/g and the tissue uptake at 0.25 h [1, 6] was 3.72 ± 0.29 %ID/g. The tissue uptake at 0.5 h [1, 6] was 3.09 ± 0.26 %ID/g, the tissue uptake at 1 h [1, 6] was 1.51 ± 0.36 %ID/g and the tissue uptake at 2 h [1, 6] was 1.38 ± 0.73 %ID/g. It also gave a tissue uptake at 2 min [1, 7] of 1.05 ± 0.25 %ID/g, a tissue uptake at 5 min [1, 7] of 0.87 ± 0.3 %ID/g and a tissue uptake at 0.25 h [1, 7] of 0.46 ± 0.1 %ID/g. For the same compound, the tissue uptake at 0.5 h [1, 7] was 0.39 ± 0.1 %ID/g, the tissue uptake at 1 h [1, 7] was 0.22 ± 0.05 %ID/g and the tissue uptake at 2 h [1, 7] was 0.58 ± 0.68 %ID/g. For the same compound, the tissue uptake at 2 min ([1]; iv, 0.74 MBq (20 uCi) per mouse, Heart uptake) was 9.15 ± 0.91 %ID/g, the tissue uptake at 2 min [1, 8] was 5.39 ± 0.84 %ID/g and the tissue uptake at 5 min [1, 8] was 6.06 ± 1.42 %ID/g. It also gave a tissue uptake at 0.25 h [1, 8] of 5.73 ± 0.64 %ID/g, a tissue uptake at 0.5 h [1, 8] of 6.28 ± 0.59 %ID/g and a tissue uptake at 1 h [1, 8] of 5.27 ± 1.09 %ID/g. For the same compound, the tissue uptake at 2 h [1, 8] was 4.18 ± 0.53 %ID/g, the tissue uptake at 2 min [1, 9] was 3.97 ± 0.56 %ID/g and the tissue uptake at 5 min [1, 9] was 5.91 ± 1.16 %ID/g. It also gave a tissue uptake at 0.25 h [1, 9] of 2.79 ± 0.68 %ID/g, a tissue uptake at 0.5 h [1, 9] of 3.32 ± 1.77 %ID/g and a tissue uptake at 1 h [1, 9] of 1.08 ± 0.21 %ID/g. The tissue uptake at 2 h [1, 9] was 1.22 ± 0.7 %ID/g, the tissue uptake at 2 min [1, 10] was 5.6 ± 0.85 %ID/g and the tissue uptake at 5 min [1, 10] was 5.08 ± 2.74 %ID/g. The tissue uptake at 0.25 h [1, 10] was 3.11 ± 1.47 %ID/g, the tissue uptake at 0.5 h [1, 10] was 2.59 ± 0.96 %ID/g and the tissue uptake at 1 h [1, 10] was 1.85 ± 1.48 %ID/g. The tissue uptake at 2 h [1, 10] was 1.1 ± 0.96 %ID/g, the tissue uptake at 5 min ([1]; iv, 0.74 MBq, Heart uptake) was 7.54 ± 2.08 %ID/g and the tissue uptake at 0.25 h ([1]; iv, 0.74 MBq, Heart uptake) was 3.57 ± 0.82 %ID/g. It also gave a tissue uptake at 0.5 h ([1]; iv, 0.74 MBq, Heart uptake) of 3.64 ± 0.66 %ID/g, a tissue uptake at 1 h ([1]; iv, 0.74 MBq, Heart uptake) of 1.19 ± 0.7 %ID/g and a tissue uptake at 2 h ([1]; iv, 0.74 MBq, Heart uptake) of 1.01 ± 0.15 %ID/g. The tissue uptake at 2 min ([1]; iv, 0.74 MBq, Kidney uptake) was 24.9 ± 1.12 %ID/g, the tissue uptake at 5 min ([1]; iv, 0.74 MBq, Kidney uptake) was 36.5 ± 2 %ID/g and the tissue uptake at 0.25 h ([1]; iv, 0.74 MBq, Kidney uptake) was 22.1 ± 1.43 %ID/g. The tissue uptake at 0.5 h ([1]; iv, 0.74 MBq, Kidney uptake) was 25.7 ± 1.17 %ID/g, the tissue uptake at 1 h ([1]; iv, 0.74 MBq, Kidney uptake) was 22.2 ± 1.92 %ID/g and the tissue uptake at 2 h ([1]; iv, 0.74 MBq, Kidney uptake) was 15.2 ± 0.96 %ID/g. It also gave a tissue uptake at 2 min ([1]; iv, 0.74 MBq, Liver uptake) of 8.01 ± 1.26 %ID/g, a tissue uptake at 5 min ([1]; iv, 0.74 MBq, Liver uptake) of 7.09 ± 2.03 %ID/g and a tissue uptake at 0.25 h ([1]; iv, 0.74 MBq, Liver uptake) of 14.8 ± 1.11 %ID/g. The tissue uptake at 0.5 h ([1]; iv, 0.74 MBq, Liver uptake) was 16.1 ± 2.34 %ID/g, the tissue uptake at 1 h ([1]; iv, 0.74 MBq, Liver uptake) was 21.6 ± 3.53 %ID/g and the tissue uptake at 2 h ([1]; iv, 0.74 MBq, Liver uptake) was 13.7 ± 2.35 %ID/g. The tissue uptake at 2 min ([1]; iv, 0.74 MBq, Lung uptake) was 6.26 ± 1.29 %ID/g, the tissue uptake at 5 min ([1]; iv, 0.74 MBq, Lung uptake) was 4.74 ± 1.69 %ID/g and the tissue uptake at 0.25 h ([1]; iv, 0.74 MBq, Lung uptake) was 3.05 ± 0.4 %ID/g. For the same compound, the tissue uptake at 0.5 h ([1]; iv, 0.74 MBq, Lung uptake) was 2.15 ± 0.27 %ID/g, the tissue uptake at 1 h ([1]; iv, 0.74 MBq, Lung uptake) was 2.19 ± 0.42 %ID/g and the tissue uptake at 2 h ([1]; iv, 0.74 MBq, Lung uptake) was 1.62 ± 0.35 %ID/g. The tissue uptake at 2 min ([1]; iv, 0.74 MBq, Spleen uptake) was 3.84 ± 1.47 %ID/g, the tissue uptake at 5 min ([1]; iv, 0.74 MBq, Spleen uptake) was 5.09 ± 1.29 %ID/g and the tissue uptake at 0.25 h ([1]; iv, 0.74 MBq, Spleen uptake) was 3.08 ± 0.55 %ID/g. It also gave a tissue uptake at 0.5 h ([1]; iv, 0.74 MBq, Spleen uptake) of 2.66 ± 0.22 %ID/g, a tissue uptake at 1 h ([1]; iv, 0.74 MBq, Spleen uptake) of 1.81 ± 0.57 %ID/g and a tissue uptake at 2 h ([1]; iv, 0.74 MBq, Spleen uptake) of 1.24 ± 0.3 %ID/g. The tissue uptake at 2 min ([1]; iv, 0.74 MBq, Stomach uptake) was 5.63 ± 1.98 %ID/g, the tissue uptake at 5 min ([1]; iv, 0.74 MBq, Stomach uptake) was 7.27 ± 1.89 %ID/g and the tissue uptake at 0.25 h ([1]; iv, 0.74 MBq, Stomach uptake) was 4.26 ± 0.55 %ID/g. For the same compound, the tissue uptake at 0.5 h ([1]; iv, 0.74 MBq, Stomach uptake) was 4.78 ± 0.98 %ID/g, the tissue uptake at 1 h ([1]; iv, 0.74 MBq, Stomach uptake) was 2.32 ± 0.56 %ID/g and the tissue uptake at 2 h ([1]; iv, 0.74 MBq, Stomach uptake) was 1.55 ± 0.2 %ID/g. For the same compound, the “In vivo defluorination (bone uptake)” value [1] was “no obvious in vivo defluorination”, the Blood clearance ([1]; iv) was “rapid blood clearance” and the “Micro-PET T/Bone” value [2] was 1.903±0.273. The “Micro-PET T/Lung” value [2] was 3.359±2.998, the Micro-PET tumor/muscle ratio [2] was 1.443±0.121 and the “Partition coefficient (log Po/w)” value [3] was -2.45 ± 0.09. The “Radiochemical purity after 8 h in PBS” value [4] was “about 95.5%”.
